Where a SMILES comes first, the peptide text is derived from it. Primed or numbered codes have the meaning given here. [ ]: non-standard residue; d: D form. The star is where a group is joined. ξ: configuration not given here. Doxorubicin(3'-N) = COc1cccc2c1C(=O)c1c(O)c3c(c(O)c1C2=O)C[C@@](O)(C(=O)CO)C[C@@H]3O[C@H]1C[C@H](N*)[C@H](O)[C@H](C)O1; PEG(2) = polyethylene glycol-containing substituent with two ethyleneoxy subunits; Hyp = O=C(O)[C@@H]1C[C@@H](O)CN1; ξtBuAla = CC(C)(C)CC(N)C(=O)O; Chg = N[C@H](C(=O)O)C1CCCCC1; ξHyp = O=C(O)C1CC(O)CN1
Columns and labels:
DuPRO cells = assay: In vitro cytotoxicity of peptidyl derivatives of doxorubicin, Alamar Blue assay, DuPRO; format: cell-based; conditions: 72 HRS, read-out: DuPRO Cell Kill in 72 HRS EC 50
Description: (§1) The cytotoxicities of the cleaveable oligopeptide-doxorubicin conjugates, prepared as described in Examples 3 and 4, against a line of cells which is known to be killed by unmodified doxorubicin were assessed with an Alamar Blue assay. Specifically, cell cultures of LNCap prostate tumor cells (which express enzymatically active PSA) or DuPRO cells in 96 well plates was diluted with medium (Dulbeco's Minimum Essential Medium-α [MEM-α]) containing various concentrations of a given conjugate (final plate well volume of 200 μl). The cells were incubated for 3 days at 37° C., 20 μl of Alamar Blue is added to the assay well. The cells were further incubated and the assay plates were read on a EL-310 ELISA reader at the dual wavelengths of 570 and 600 nm at 4 and 7 hours after addition of Alamar Blue. Relative percentage viability at the various concentration of conjugate tested was then calculated versus control (no conjugate) cultures. If no salt is indicated, the free conjugate was tested.

[1] = biological target: T1, enzymatically active free PSA (Homo sapiens, UniProt P07288); assay: Recognition of oligopeptide-doxorubicin conjugates by free PSA (HPLC cleavage assay); format: biochemical; conditions: for Time to 50% Substrate Cleavage by PSA: conjugate added to PSA at molar ratio 100 to 1, PSA digestion buffer
T1 construct: required for 50% cleavage of the noted oligopeptides with enzymatically active free PSA
Description: The conjugates prepared as described in Examples 3-5 were individually dissolved in PSA digestion buffer (12 mM tris(hydroxymethyl)-aminomethane pH8.0, 25 mM NaCl, 0.5 mm CaCl2) and the solution added to PSA at a molar ration of 100 to 1. Alternatively, the PSA digestion buffer utilized is 50 mM tris(hydroxymethyl)-aminomethane pH7.4, 140 mM NaCl. The reaction is quenched after various reaction times by the addition of trifluoroacetic acid (TFA) to a final 1% (volume/volume). Alternatively the reaction is quenched with 10 mm ZnCl2. The quenched reaction was analyzed by HPLC on a reversed-phase C18 column using an aqueous 0.1% TFA/acetonitrile gradient. […] If no salt is indicated for the conjugate, the free conjugate was tested. The oligopeptide-cytotoxic agent conjugates described in Examples 4 and 5 were assessed for the amount of time (in minutes) required for 50% cleavage of the oligopeptide with enzymatically active free PSA and 50% cleavage occurred in less than 2 hours for those conjugates.

[2] = test system: LNCap prostate tumor cells (which express enzymatically active PSA); assay: In vitro cytotoxicity of peptidyl derivatives of doxorubicin, Alamar Blue assay, LNCaP; format: cell-based; conditions: 72 HRS, read-out: LNCaP Cell Kill in 72 HRS EC 50
Description: as §1

[3] = biological target: T1, enzymatically active free PSA; assay: Recognition of oligopeptides by free PSA (HPLC cleavage assay); format: biochemical; conditions: for Substrate cleavage by PSA at 3 HOURS: oligopeptide added to PSA at molar ratio 100 to 1; for Time to 50% Substrate Cleavage by PSA: oligopeptide added to PSA at molar ratio 100 to 1, PSA digestion buffer
Description: The oligopeptides prepared as described in Example 1 were individually dissolved in PSA digestion buffer (12 mM tris(hydroxymethyl)-aminomethane pH8.0, 25 mM NaCl, 0.5 mM CaCl2) and the solution added to PSA at a molar ration of 100 to 1. Alternatively, the PSA digestion buffer utilized is 50 mM tris(hydroxymethyl)-aminomethane pH7.4, 140 mM NaCl. The reaction is quenched after various reaction times by the addition of trifluoroacetic acid (TFA) to a final 1% (volume/volume). Alternatively the reaction is quenched with 10 mM ZnCl2. The quenched reaction was analyzed by HPLC on a reversed-phased C18 column using an aqueous 0.1% TFA/acetonitrile gradient. […] Oligopeptides containing free amine moieties (ie. comprising hArg, Orn, Lys and or 3PAL) were tested as TFA salts. All other oligopeptides were tested as neutral compounds.

T1 sequence (P07288 25-261): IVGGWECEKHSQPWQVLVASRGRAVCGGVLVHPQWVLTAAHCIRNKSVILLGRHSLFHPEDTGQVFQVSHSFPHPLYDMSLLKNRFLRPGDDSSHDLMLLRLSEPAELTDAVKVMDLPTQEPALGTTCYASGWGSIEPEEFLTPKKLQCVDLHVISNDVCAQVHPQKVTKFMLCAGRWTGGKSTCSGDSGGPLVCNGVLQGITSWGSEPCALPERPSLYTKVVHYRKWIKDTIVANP

## COc1cccc2c1C(=O)c1c(O)c3c(c(O)c1C2=O)C[C@@](O)(C(=O)CO)C[C@@H]3O[C@H]1C[C@H](NC(=O)C(CC(C)(C)C)NC(=O)[C@H](CO)NC(=O)[C@H](CCC(N)=O)NC(=O)[C@@H](NC(=O)[C@H](CO)NC(=O)[C@H](C)NC(=O)C2CC(O)CN2C(C)=O)C2CCCCC2)[C@H](O)[C@H](C)O1 (stereo partly shown) (Ac-[ξHyp]AS[Chg]QS[ξtBuAla]-{Doxorubicin(3'-N)})
DuPRO cells
  EC50: > 100 µM
[1]
  Time to 50% Substrate Cleavage by PSA: 25 min
[2]
  EC50: 100 µM

## COc1cccc2c1C(=O)c1c(O)c3c(c(O)c1C2=O)C[C@@](O)(C(=O)CO)C[C@@H]3O[C@H]1C[C@H](NC(=O)[C@H](CC(C)C)NC(=O)[C@H](CO)NC(=O)[C@H](CCC(N)=O)NC(=O)[C@@H](NC(=O)[C@H](CO)NC(=O)[C@H](C)NC(=O)[C@@H]2C[C@@H](O)CN2C(C)=O)C2CCCCC2)[C@H](O)[C@H](C)O1 [Ac-(4-trans-L-Hyp)ASChgQ-SL-DOX (3′), [N-Ac-(4-trans-L-Hyp)]-Ala-Ser-Chg-Gln-Ser-Leu-Dox] (Ac-[Hyp]AS[Chg]QSL-{Doxorubicin(3'-N)})
DuPRO cells
  EC50: 90 µM
[1]
  Time to 50% Substrate Cleavage by PSA: 20 min
[2]
  EC50: 4.5 µM

## Ac-(4-trans-L-Hyp)ASChgQ-SThi-DOX (3′)
[1]
  Solubility noted in the column Time to 50% Substrate Cleavage by PSA: INSOLUBLE

## Ac-(4-trans-L-Hyp)ChgQ-SSSL-acid
[3]
  Substrate cleavage by PSA at 3 HOURS: 3 HOURS = 0% n = 2

## Ac-(Dehydro-Pro)-ASChgQ-SL-acid
[3]
  Substrate cleavage by PSA at 3 HOURS: 3 HOURS = 28%

## Ac-PASChgQ-SL-acid (Ac-PAS[Chg]QSL-OH)
[3]
  Time to 50% Substrate Cleavage by PSA: 150 min

## Ac-PSSChgQ-SV-acid
[3]
  Time to 50% Substrate Cleavage by PSA: 120 min

## PEG(2)-(4-trans-L-Hyp)ASChgQ-SL-acid ({PEG(2)}-[Hyp]AS[Chg]QSL-OH)
[3]
  Substrate cleavage by PSA at 3 HOURS: 3 HOURS = 44%

## [N-Ac-(4-trans-L-Hyp)]-Ala-Ser-Chg-Gln-Ser-Leu-OH (Ac-[Hyp]AS[Chg]QSL-OH) [Ac-(4-trans-L-Hyp)ASChgQ-SL-acid]
[3]
  Time to 50% Substrate Cleavage by PSA: 75 min
